Results reported in publication PMC11995724.

Biological target: MiaA C273A (Shigella flexneri, UniProt P59197 1-316, C273A)
Assay: EMSA (2% agarose); 10 mM Mg2+; 100 uM 10-F05; binding only slightly decreased, largely unaffected
Conditions: protein: recombinant; tags: N-terminal His-tag (pET28a); label: none (GelRed stain); predicted two hairpin loops

GUUCAAUUGGUAGAGCACCGGUCUCCAAAACCGG (structured_RNA) [tRNATrp_34-base]
binding result: binds
